These results are taken from paper PMC2847487.

Series [1] addresses sortilin extracellular region with C-terminal biotinylation acceptor peptide, biotinylated (human) (human) (UniProt Q99523). Nature of the series: SPR.
Series [2] addresses C-terminal myc-tagged sortilin (UniProt Q99523). The series can be described thus: co-IP.
For series [3], the target named is triple-site mutant proNGF (mouse, cleavage-resistant) (mouse). The series can be described thus: crystal structure.
Series [4] can be described thus: size exclusion chromatography of p75NTR alone. To be noted: glycan lost; control: wild-type glycosylated p75NTR.

“proNGF/p75NTR complex (preformed) (from UniProt P07174 29-190)”: the Kd in series [1] was 140 nM.

As for “N-terminal HA tagged-proNGF (from UniProt P01139 122-241) (ligand)”, the fold increase of the proNGF:sortilin interaction with calcium over EDTA in series [2] worked out at 2.3 fold.

In series [3], “p75NTR extracellular portion, Asn32 to Asp glycosylation site mutant (rat) (from UniProt P07174 29-190) (receptor)” yielded a stoichiometry N (p75NTR per proNGF chain (2:2)) of 1.

B1: p75NTR: Asn32 to Asp (protein)
parent chain: MRRAGAACSAMDRLRLLLLLILGVSSGGAKETCSTGLYTHSGECCKACNLGEGVAQPCGANQTVCEPCLDNVTFSDVVSATEPCKPCTECLGLQSMSAPCVEADDAVCRCAYGYYQDEETGHCEACSVCEVGSGLVFSCQDKQNTVCEECPEGTYSDEANHVDPCLPCTVCEDTERQLRECTPWADAECEEIPGRWIPRSTPPEGSDSTAPSTQEPEVPPEQDLVPSTVADMVTTVMGSSQPVVTRGTTDNLIPVYCSILAAVVVGLVAYIAFKRWNSCKQNKQGANSRPVNQTPPPEGEKLHSDSGISVDSQSLHDQQTHTQTASGQALKGDGNLYSSLPLTKREEVEKLLNGDTWRHLAGELGYQPEHIDSFTHEACPVRALLASWGAQDSATLDALLAALRRIQRADIVESLCSESTATSPV
Consider B1, for which, in series [4], the oligomerisation result was “no change”.

Broadly, the Kd is the free concentration of one partner at which half of the binding sites on the other are occupied at equilibrium, for simple one-to-one binding. Low readings indicate higher affinity, high ones lower affinity.
